Experimental data as given in US20090162366A1.

Target: M2G peptide conjugated with BSA (influenza A virus, A/Puerto Rico/8/34 (H1N1))
Experiment: peptide-BSA ELISA (++ EC50<10^-9M; + 10^-9M<EC50<10^-8M)

mouse anti-M2 antibody 14C2
EC50: < 1 nM
